Laboratory results taken from patent US11202830B2, “Human immunodeficiency virus therapies utilizing N332-glycan-dependent antibodies in subjects with low viral loads” (priority 2013, dated 2021).

B1: 3BNC117: CD4bs-specific antibody; light chain SEQ ID NO: 257, heavy chain SEQ ID NO: 258 (antibody, listed as Homo sapiens)
heavy: QVQLLQSGAAVTKPGASVRVSCEASGYNIRDYFIHWWRQAPGQGLQWVGWINPKTGQPNNPRQFQGRVSLTRHASWDFDTFSFYMDLKALRSDDTAVYFCARQRSDYWDFDVWGSGTQVTVSS
light: DIQMTQSPSSLSASVGDTVTITCQANGYLNWYQQRRGKAPKLLIYDGSKLERGVPSRFSGRRWGQEYNLTINNLQPEDIATYFCQVYEFVVPGTRLDLKRTVA
B2: PGT121: N332 glycan-dependent antibody; CDRs SEQ ID NO: 1-6, VH SEQ ID NO: 7, VL SEQ ID NO: 8 (antibody, V domains shown)
VH: QMQLQESGPGLVKPSETLSLTCSVSGASISDSYWSWIRRSPGKGLEWIGYVHKSGDTNYSPSLKSRVNLSLDTSKNQVSLSLVAATAADSGKYYCARTLHGRRIYGIVAFNEWFTYFYMDVWGNGTQVTVSS
VL: SDISVAPGETARISCGEKSLGSRAVQWYQHRAGQAPSLIIYNNQDRPSGIPERFSGSPDSPFGTTATLTITSVEAGDEADYYCHIWDSRVPTKWVFGGGTTLTVL

How the values were obtained:
[1] = test system: SHIV-SF162P3; assay: Antibody infusion in rhesus monkeys chronically infected with SHIV-SF162P3: plasma viral RNA; format: in vivo, rhesus monkeys (Macaca mulatta)
Source text: (§1) Groups were balanced for susceptible and resistant TRIM5α alleles (Lim et al., PLoS Pathog. 6: e1000738, 2010; Letvin et al., Sci Transl Med. 3: 81 ra36, 2011). Animals infected by the intrarectal route with our rhesus-derived SHIV-SF162P3 challenge stock for 9 months prior to antibody administration were utilized for the studies. […] 3BNC117 was manufactured by Celldex Therapeutics in CHO cells and purified by chromatography and sterile filtration. All the antibody preparations were endotoxin free. Cocktails of antibodies or single antibodies were administered to monkeys once or twice by the intravenous route at a dose of 10 mg/kg for each antibody. Monkeys were bled up to three times per week for viral loads. All animal studies were approved by the appropriate Institutional Animal Care and Use Committee (IACUC).
To evaluate the therapeutic potential of broad and potent HIV-1-specific antibodies in nonhuman primates, we infused cocktails of antibodies, as well as single antibodies, in chronically SHIV-infected rhesus monkeys.
We next investigated the therapeutic efficacy of a single infusion of the cocktail of three antibodies as well as a combination of only two antibodies. […] Viral rebound occurred in the majority of animals between day 28 and day 84 (FIGS. 2A and 2B) and was associated with declines of serum antibody titers to undetectable levels (FIGS. 2E and 2F).
It is generally believed that a combination of antibodies directed against multiple epitopes will be required for virologic control (Klein et al., Nature. 492: 118-122, 2012; Poignard et al., Immunity. 10: 431-438, 1999; Trkola et al., Nat Med. 11: 615-622, 2005; Diskin et al., J Exp Med. 210:1235-1249, 2013). However, the current extraordinarily potent and broad antibodies have not previously been evaluated in nonhuman primates with intact immune systems.

[2] = test system: SHIV-SF162P3; assay: Sensitivity of SHIV-SF162P3 to 3BNC117; format: cell-based
[3] = test system: SHIV-SF162P3 proviral DNA; assay: Proviral DNA assay (PBMC, lymph node, gastrointestinal mucosa) after antibody infusion; format: in vivo, rhesus monkeys (Macaca mulatta); conditions: day 14 after single infusion 10 mg/kg
Source text: as §1
Lymph node and gastrointestinal mucosal biopsies were processed as single cell suspensions essentially as previously described (Li et al., J Virol 85: 11007-11015, 2011). Tissue-specific proviral DNA was quantitated as previously reported (Whitney et al., J Virol. 83: 10840-10843, 2009). Total cellular DNA was isolated from 5×10^6 cells using a QIAamp DNA Blood Mini kit (Qiagen). The absolute quantification of viral DNA in each sample was determined by qPCR using primers specific to a conserved region SIVmac239. All samples were directly compared to a linear virus standard and the simultaneous amplification of a fragment of human GAPDH gene. The sensitivity of linear standards was compared against the 3D8 cell line as a reference standard as described (Whitney et al., J Virol. 83: 10840-10843, 2009). All PCR assays were performed with 100 and 200 ng of sample DNA.

[4] = test system: clade C viruses; conditions: cited from earlier work

Molecule	transient reduction of plasma viral loads ([1]; single infusion 10 mg/kg)	sensitivity of the SHIV-SF162P3 challenge stock ([2]; applicant's rhesus-derived challenge stock)	sensitivity of the cloned SHIV-SF162P3 pseudovirus ([2]; cloned pseudovirus)	no evidence of viral rebound for ([1]; baseline <3.5 log RNA copies/ml, monkeys 4905 and DN1G)	time virtually undetectable viral RNA was maintained after treatment ([1]; one infusion on day 0, n=3)	viral RNA after treatment ([1]; one infusion on day 0, n=3)	virologic suppression compared to 10-1074, 3BNC117, or VRC07-523 ([1]; one infusion on day 0, n=3)	animals with rapid virologic control to undetectable levels by day 7 ([1]; single i.v. infusion day 0, 10 mg/kg of each antibody)	outcome in one animal (monkey DN1G) ([1]; single infusion 10 mg/kg)	reduction of proviral DNA in lymph nodes vs DEN3 control ([3]; P=0.05) [fold]	reduction of proviral DNA in peripheral blood vs DEN3 control ([3]; P=0.05) [fold]	reduction of proviral DNA in gastrointestinal mucosa vs DEN3 control ([3]; P=0.1) [fold]	clade C viruses covered [4]
B1	0.2-1.1 log	largely resistant	highly sensitive	–	–	–	–	–	–	–	–	–	–
B2	–	–	–	over 100 days	at least 15 days	virtually undetectable levels of viral RNA within days of treatment	extremely potent virologic suppression	4 of 4	long-term virologic control	4	6	4	approximately 70%
